# B1: Ex1Q48 (other)
# chain: MATLEKLMKAFESLKSFQQQQQQQQQQQQQQQQQQQQQQQQQQQQQQQQQQQQQQQQQQQQQQQQPPPPPPPPPPPQLPQPPPQAQPLLPQLQPPPPPPPPPPGPAAAEEPLHRP
# notes: also called HTTEx1Q48; HTTex1Q48
# Molecular target: the molecule itself
# Test: AFM of spontaneously formed aggregates (self-assembly)
protein,measurement,value
B1,binding result,binds

# From US20210302442A1 (MAX DELBR CK CENTRUM F R MOLEKULARE MEDIZIN IN DER …, published 2021)
